In US20200079842A1 (NETRIS PHARMA, published 2020):
Where “and” joins values, the source holds several entries; their conditions need not be identical. Equal values may be shown once.

Experiments:
[1] = molecular target: T1, His-tagged Netrin-1 (R&D 6419-N1) (human, UniProt O95631 25-604); experiment: ELISA, coated His-tagged netrin-1, luminescence
T1 construct: Bought protein; also called adsorbed netrin-1; not shown: His tag
Description: White 96-well microtiter plate (Costar 3912 Corning) was incubated overnight at 4° C. with 100 ng of His-tagged Netrin-1 (R&D 6419-N1) in 100 μL of Phosphate buffer saline (PBS). After three washings with 300 μL of PBS-0.05% TWEEN®-20 (PBS-T), the plate was blocked by addition of 100 μL of PBS-3% BSA and incubated 1 hour at room temperature. After three washings with 300 μL of PBS-T, the plate was incubated with various quantities (10 ng to 1200 ng) of the anti-netrin-1 antibody. After three washings with 300 μL of PBS-T, 100 μL of a relevant secondary antibody conjugated to horse radish peroxidase (e.g. goat anti-human IgG (Fc) Sigma A0170 or goat anti-mouse IgG light chain specific (kappa) Jackson Immunoresearch 115-035-174) diluted 1/10,000 in PBST-3% BSA was added and the plate was incubated 1 hour at room temperature. After three washings with 300 μL of PBS-T, 100 μL of a luminescent substrate of HRP (ECL western blotting substrate, PIERCE) is added. After 5 to 10 minutes, the luminescence was read on a Tecan Infinite F-500 luminometer.

[2] = molecular target: T2, FLAG-tagged netrin-1 (Adipogen) (human, UniProt O95631 25-604, limits assumed); experiment: competition ELISA: FLAG-netrin-1 binding to coated UNC5B-Fc
T2 construct: Bought protein; also called FLAG®-tagged Netrin-1 (APOTECH); not shown: FLAG tag
Description: (§1) After three washings with 300 μL of PBS-0.05% TWEEN®-20 (PBS-T), the plate was blocked by addition of 100 μL of PBS-2% BSA and incubated 1 hour at room temperature. After three washings with 300 μL of PBS-T, the plate was incubated for 1 hour at room temperature, with 100 μL of PBS-1% BSA containing 50 ng/mL FLAG®-tagged netrin-1 (Adipogen) and various quantities (0.2 ng to 3000 ng) of the 4C11 antibody. After three washings with 300 μL of PBS-T, 100 μL of an anti-FLAG® M2 monoclonal antibody conjugated to horse radish peroxidase (HRP) (Sigma A8592) diluted 1/5,000 in PBST-1% BSA was added and the plate was incubated 1 hour at room temperature. After three washings with 300 μL of PBS-T, 100 μL of a luminescent substrate of HRP (ECL western blotting substrate, PIERCE) is added. After 5 to 10 minutes, the luminescence was read on a Tecan Infinite F-500 luminometer.

human netrin-1 [3] = molecular target: T3, human netrin-1 (human, UniProt O95631 25-604, limits assumed); experiment: SPR (Biacore T100), 4C11 captured, netrin-1 as analyte, 25° C.
T3 construct: also called NET1; netrin-I
Description: (§2) Murine 4C11 (IgG1) antibody (SEQ ID NO: 12 and 13) was captured via amine coupled capture molecules. A series with increasing concentrations of netrin-1 was injected. Chip surface with amine coupled capture molecule alone was used as reference control surface for correction of possible buffer-effects or non-specific binding of netrin-I.
(§3) Analyte sample: Classical concentration series were measured at a flow rate of 50 μL/min by consecutive injection of the analyte in 5 or 6 increasing concentrations (c 2-164 nM). Running buffer: 20 mM Hepes pH7.4, 600 mM NaCl, 0.005% TWEEN® 20. The analyte was injected for 3 minutes followed by a dissociation phase of 90 s.
(§4) Kinetic parameters were then calculated by using the usual double referencing (control reference: binding of analyte to capture molecule; Flow Cell: netrin-1 concentration “0” as Blank) and calculation with model ‘titration kinetics 1: 1 binding.

human netrin-1 [4] = molecular target: T3, human netrin-1; experiment: SPR (Biacore T100), 4C11 captured, netrin-1 as analyte, 25° C.; Exp 1
Description: as §2, §3, §4

[5] = molecular target: T2, FLAG-tagged netrin-1 (Adipogen); experiment: competition ELISA: FLAG-tagged netrin-1 with rising 4C11 on coated UNC5B-Fc, bound netrin-1 detected with anti-FLAG-HRP, luminescence
Description: FIG. 2: Inhibition of Netrin-1 binding onto UNC5B-Fc by 4C11. FLAG®-tagged Netrin-1 (APOTECH) in presence of various concentrations of 4C11 were incubated onto 96-well microtiter plate coated with UNC5B-Fc (Netris). Bound Netrin-1 was detected using an anti-FLAG® antibody conjugated with horseradish peroxidase (Sigma) and a chemiluminescent substrate (PIERCE ECL western blotting substrate). The luminescence was read on a Tecan Infinite F-500 luminometer.
as §1

[6] = molecular target: T2, FLAG-tagged netrin-1 (Adipogen); experiment: ELISA-type assay, netrin-1 coated on the plate (legend paragraph 28: FLAG-tagged Netrin-1, APOTECH; Example 3: His-tagged Netrin-1, R&D), anti-mouse IgG-HRP, luminescence
Description: FIG. 1: ELISA binding assay of murine 4C11 to human Netrin-1. Various concentrations of 4C11 were incubated onto 96-well microtiter plate coated with FLAG®-tagged Netrin-1 (APOTECH). Bound 4C11 was detected using a goat anti-mouse IgG conjugated with horseradish peroxidase (Jackson Immunoresearch) and a chemiluminescent substrate (PIERCE ECL western blotting substrate). The luminescent was read on a Tecan Infinite F-500 luminometer.

B1: murine 4C11 (IgG1) antibody (antibody, V domains shown)
VH: QAYLQQSGAELVRPGASVKMSCKASGYTFTSYNMHWVKQTPRQGLEWIGAIYPGNGDTSYNQKFKGKATLTVDKSSSTAYMQLSSLTSEDSAVYFCARGGTGFAYWGQGTLVTVSA
VL: SIVMTQTPKFLLVSAGDRVTITCKASQSVSNDVAWYQQKPGQSPKLLIYYASNRYTGVPDRFTGSGYGTDFTFTISTVQAEDLAVYFCQQDYSSPWTFGGGTKLEIKR
notes: also called NET1-M-mAb; 4C11 murine IgG1
- EC50 [1]: 0.057 µg/mL and 0.38 nM
- IC50 [2]: 0.075 µg/mL and 0.502 nM
- Kd (human netrin-1 [3]): 13.3 nM and 12.7 nM
- kon (human netrin-1 [3]): 140000 M⁻¹ s⁻¹
- koff (human netrin-1 [4]): 0.0018 s⁻¹
- IC50 (read off the curve) [5]: ~0.6 nM
- EC50 (read off the curve) [6]: ~30 ng/mL
